Data from article PMC7113306 (2020).
Several values for one entry are separate records, joined by “and”; a condition that tells them apart may be missing. Equal values may be shown once.

T1: ALK2-Fc (UniProt Q04771 21-123)
T1 chain: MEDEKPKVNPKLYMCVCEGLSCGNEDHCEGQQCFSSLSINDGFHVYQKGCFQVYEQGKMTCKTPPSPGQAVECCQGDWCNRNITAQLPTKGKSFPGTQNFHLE

B1: BMP9 GF-domain (bone morphogenetic protein 9 growth factor domain) (ligand)
chain: SAGAGSHCQKTSLRVNFEDIGWDSWIIAPKEYEAYECKGGCFFPLADDVTPTKHAIVQTLVHLKFPTKVGKACCVPTKLSPISVLYKDDMGVPTLKYHYEGMSVAECGCR
B2: pro-BMP9 (prodomain-bound BMP9) (complex)
chain 1: KPLQSWGRGSAGGNAHSPLGVPGGGLPEHTFNLKMFLENVKVDFLRSLNLSGVPSQDKTRVEPPQYMIDLYNRYTSDKSTTPASNIVRSFSMEDAISITATEDFPFQKHILLFNISIPRHEQITRAELRLYVSCQNHVDPSHDLKGSVVIYDVLDGTDAWDSATETKTFLVSQDIQDEGWETLEVSSAVKRWVRSDSTKSKNKLEVTVESHRKGCDTLDISVPPGSRNLPFFVVFSNDHSSGTKETRLELREMISHEQESVLKKLSKDGSTEAGESSHEEDTDGHVAAGSTLARRKR
chain 2: B1 chain
B3: pro-BMP10 (prodomain-bound BMP10) (complex)
chain 1: SPIMNLEQSPLEEDMSLFGDVFSEQDGVDFNTLLQSMKDEFLKTLNLSDIPTQDSAKVDPPEYMLELYNKFATDRTSMPSANIIRSFKNEDLFSQPVSFNGLRKYPLLFNVSIPHHEEVIMAELRLYTLVQRDRMIYDGVDRKITIFEVLESKGDNEGERNMLVLVSGEIYGTNSEWETFDVTDAIRRWQKSGSSTHQLEVHIESKHDEAEDASSGRLEIDTSAQNKHNPLLIVFSDDQSSDKERKEELNEMISHEQLPELDNLGLDSFSSGPGEEALLQMRSNIIYDSTARIRR
chain 2: NAKGNYCKRTPLYIDFKEIGWDSWIIAPPGYEAYECRGVCNYPLAEHLTPTKHAIIQALVHLKNSQKASKACCVPTKLEPISILYLDKGVVTYKFKYEGMAVSECGCR
modifications: furin-processed; prodomain non-covalently bound to the disulfide-linked GF-domain dimer; secreted from HEK EBNA cells. Limits are from the UniProt PROPEP and CHAIN features.
B4: BMP10 GF-domain (bone morphogenetic protein 10 growth factor domain) (ligand)
chain: B3 chain 2
B5: BMP6-GF WT (protein)
chain: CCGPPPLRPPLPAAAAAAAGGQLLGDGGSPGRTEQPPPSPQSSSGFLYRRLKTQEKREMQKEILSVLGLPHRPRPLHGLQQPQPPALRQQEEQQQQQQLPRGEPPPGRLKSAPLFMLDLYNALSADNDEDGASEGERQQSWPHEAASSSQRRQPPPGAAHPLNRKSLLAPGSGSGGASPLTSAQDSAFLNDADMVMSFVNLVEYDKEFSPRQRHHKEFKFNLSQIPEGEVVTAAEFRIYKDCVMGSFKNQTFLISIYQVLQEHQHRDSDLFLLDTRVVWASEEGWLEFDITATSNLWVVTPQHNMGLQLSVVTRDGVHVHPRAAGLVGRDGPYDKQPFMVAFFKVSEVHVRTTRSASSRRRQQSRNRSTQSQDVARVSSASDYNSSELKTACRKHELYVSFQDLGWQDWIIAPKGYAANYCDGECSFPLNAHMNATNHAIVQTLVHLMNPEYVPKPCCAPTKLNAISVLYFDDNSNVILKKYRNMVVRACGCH
modifications: disulfide-linked GF-domain homodimer. The text gives no BMP6 construct, source or limits (named only in a figure), so the human mature chain is assumed.

These binders were tested against T2, ALK1-Fc (ALK1 extracellular domain-Fc fusion protein) (UniProt P37023 22-118) (assay: SPR).
T2 sequence (P37023 22-118): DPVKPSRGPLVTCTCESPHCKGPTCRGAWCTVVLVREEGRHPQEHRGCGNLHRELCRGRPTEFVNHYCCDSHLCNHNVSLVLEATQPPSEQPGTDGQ
B1 gave a koff of 6.19e-05 s⁻¹. B2 showed a koff of 4.84e-05 s⁻¹. B3 showed a koff of 3.44e-05 s⁻¹. B4 gave a koff of 5.31e-05 s⁻¹.

The binders below were run against T3, ALK1 extracellular domain (ALK1 ECD) (human, UniProt P37023 22-118) (assay: SPR).
T3 sequence (P37023 22-118): as above
Work on B1 yielded a koff of 8.37e-05 s⁻¹. With B2 the koff was 8.46e-05 s⁻¹. B3 was tested, and the koff was 5.63e-05 s⁻¹. B4 gave a koff of 8.5e-05 s⁻¹.

Biological target: T2, ALK1-Fc (ALK1 extracellular domain-Fc …)
Experiment: SPR
Remark: another data set of the same source
B2 was tested, and the Kd was 0.0392 nM and 0.0612 nM. In the case of B3, the Kd is reported as 0.0187 nM and 0.0112 nM.

Biological target: T1, ALK2-Fc
Experiment: SPR
With B2 the Kd was 86.2 nM. B5 was tested, and the Kd was 19.2 nM.

Biological target: T3, ALK1 extracellular domain (ALK1 ECD)
Experiment: SPR
Remark: another data set of the same source
With B1 the Kd was 0.0716 nM. Binder B2 has a Kd of 0.0929 nM. B3 was tested, and the Kd was 0.017 nM. Binder B4 has a Kd of 0.0557 nM.
